What all share (assay): ITC; 200-400 μM 53BP1 Tudor domain (wt or mutant) injected into 200 μl of 22-44 μM TIRR or Nudt16 (wt or mutant); 25 °C; 20 mM Tris-HCl pH 7.5, 150 mM NaCl; single-site binding model
For orientation: Isothermal titration calorimetry measures the heat released or taken up as one component is titrated into another.

The target in experiment [1] is TIRR I12G (not stated (human or mouse cDNA cloned)) (UniProt Q8VHN8).
In experiment [2] the target is TIRR K10E (not stated (human or mouse cDNA cloned)) (UniProt Q8VHN8).
For experiment [3], the target named is Nudt16 ^H105 with R5, L7, V100 substituted by TIRR residues K10, I12, L101 (H. sapiens) (UniProt Q96DE0).
Experiment [4] addresses TIRR H106A (not stated (human or mouse cDNA cloned)) (UniProt Q8VHN8).
Experiment [5] concerns the target TIRR P105A (not stated (human or mouse cDNA cloned)) (UniProt Q8VHN8).
In experiment [6] the target is TIRR I12A (not stated (human or mouse cDNA cloned)) (UniProt Q8VHN8).
The target in experiment [7] is TIRR H106K (not stated (human or mouse cDNA cloned)) (UniProt Q8VHN8).
Experiment [8] addresses TIRR H106Δ (not stated (human or mouse cDNA cloned)) (UniProt Q8VHN8).
Experiment [9] has as its target TIRR L20A (not stated (human or mouse cDNA cloned)) (UniProt Q8VHN8).
Experiment [10] concerns the target TIRR H106Y (not stated (human or mouse cDNA cloned)) (UniProt Q8VHN8).
Experiment [11] deals with Nudt16 ^W105 (H. sapiens) (UniProt Q96DE0).
In experiment [12] the target is Nudt16 ^H105 (H. sapiens) (UniProt Q96DE0).
The target of experiment [13] is TIRR H106Q (not stated (human or mouse cDNA cloned)) (UniProt Q8VHN8).
In experiment [14] the target is TIRR H106R (not stated (human or mouse cDNA cloned)) (UniProt Q8VHN8).
The target in experiment [15] is TIRR H106W (not stated (human or mouse cDNA cloned)) (UniProt Q8VHN8).

The Kd is a measure of binding affinity in units of concentration. Read a low Kd as higher affinity.

Sequence of 53BP1 tandem Tudor domain (1484-1603) (Q12888 other isoform, or with tags, fused parts or gaps): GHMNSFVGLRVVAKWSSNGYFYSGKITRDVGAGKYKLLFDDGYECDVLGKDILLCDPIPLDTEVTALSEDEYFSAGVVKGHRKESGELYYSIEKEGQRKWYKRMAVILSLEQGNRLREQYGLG

Take “53BP1 tandem Tudor domain (1484-1603) (from UniProt Q12888 1484-1603) (domain or fragment)”: the Kd in experiment [1] was 38.3 µM; in [2], 20.4 µM; in [3] it was 1 µM; in experiment [4], 3.9 µM; in [5], 4.3 µM; in experiment [6], 4.9 µM. Besides, the dissociation constant (Kd) in experiment [7] amounted to 6.8 µM; in [8], 17.8 µM; in experiment [9] it was 25.5 µM; in [10], 1.4 µM; in [11], 3.6 µM; in experiment [12], 7.1 µM. The values for the Kd in experiment [13], in experiment [14] and in experiment [15] were 5.1 µM, 1.9 µM and 0.5 µM, respectively.
